This passage reports fold weakening of the phospho-tail interaction against wild-type VSP results from publication PMC10037535.

The target in this assay is F-4p-18mer-tail (synthetic fluorescein-labeled tetraphosphorylated PTEN C-tail peptide). The experiment in a line: fluorescence polarisation.

“VSP Asp mutants of the active site Lys residues (Lys364 and Lys367) (domain or fragment)” returned a fold weakening of the phospho-tail interaction against wild-type VSP of 3.4 fold.
